The text below walks through data of paper PMC6395711, “MdGSTF6, activated by MdMYB1, plays an essential role in anthocyanin accumulation in apple”.

The target in the series is T1, MdMYB1 (Malus domestica? (apple), UniProt A0SQ37 1-243).
T1 sequence: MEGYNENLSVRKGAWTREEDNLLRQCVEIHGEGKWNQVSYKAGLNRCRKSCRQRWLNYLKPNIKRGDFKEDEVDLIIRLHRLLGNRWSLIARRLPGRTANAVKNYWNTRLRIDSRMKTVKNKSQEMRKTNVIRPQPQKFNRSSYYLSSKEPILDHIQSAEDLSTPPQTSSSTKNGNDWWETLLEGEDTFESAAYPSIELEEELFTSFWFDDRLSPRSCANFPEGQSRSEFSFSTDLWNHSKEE
Put plainly: EMSA; LightShift Chemiluminescent EMSA Kit (Thermo); buffer, salt, pH and temperature not stated. The note with it: protein: recombinant; tags: pET-32a fusion, His (Ni-agarose purified); blunt. On the technique in general: A gel shift assay detects complexes by their altered migration in electrophoresis.

B1: MdGSTF6-probe (dsDNA)
DNA 1: ATATCTAGTTGTAATCAACTGTTATGGCATAAATTG
DNA 2: CAATTTATGCCATAACAGTTGATTACAACTAGATAT
For the molecule B1, the binding result is listed as “binds”.
